Test results reported in PMC6393304 (Nucleic Acids Research, 2018).
Substitutions are numbered along the chain they refer to. Names may count otherwise.

B1: C-terminal bZIP domain of human C/EBPβ (residues 269–344), wild type (domain or fragment)
chain: HMKHSDEYKIRRERNNIAVRKSRDKAKMRNLETQHKVLELTAENERLQKKVEQLSRELSTLRNLFKQLPEPLLASSGH
B2: C-terminal bZIP domain of human C/EBPβ (residues 269–344), V285A variant (domain or fragment)
chain: B1 chain with V19A

Molecular target: the molecule itself
Experiment: crystal structure

Protein | binding result
B1 | binds
B2 | binds
